Assay results taken from publication PMC7039193 (The Journal of Cell Biology, 2019).

Molecular target: GST-EVH1 domain of VASP (UniProt P50552 1-113)
Assay: pull-down

Sequence of GST-EVH1 domain of VASP (P50552 1-113): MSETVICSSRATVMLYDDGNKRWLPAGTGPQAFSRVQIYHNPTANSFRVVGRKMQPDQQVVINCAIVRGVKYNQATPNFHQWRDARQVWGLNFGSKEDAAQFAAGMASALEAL

B1: endogenous TRIM9 (mouse embryonic cortex) (natural protein, mouse (endogenous in embryonic cortex), UniProt Q8C7M3 1-817, looked up)
chain: MEEMEEELKCPVCGSFYREPIILPCSHNLCQACARNILVQTPESESPQSRRASGSGVSDYDYLDLDKMSLYSEADSGYGSYGGFASAPTTPCQKSPNGVRVFPPAMPPPPTHLSPALAPVPRNSCITCPQCHRSLILDDRGLRGFPKNRVLEGVIDRYQQSKAAALKCQLCEKAPKEATVMCEQCDVFYCDPCRLRCHPPRGPLAKHRLVPPAQGRVSRRLSPRKVSTCTDHELENHSMYCVQCKMPVCYQCLEEGKHSSHEVKALGAMWKLHKSQLSQALNGLSDRAKEAKEFLVQLRTMVQQIQENSVEFEACLVAQCDALIDALNRRKAQLLARVNKEHEHKLKVVRDQISHCTVKLRQTTGLMEYCLEVIKENDPSGFLQISDALIRRVHLTEDQWGKGTLTPRMTTDFDLSLDNSPLLQSIHQLDFVQVKASSPVPATPILQLEECCTHNNSATLSWKQPPLSTVAADGYILELDDGSGGQFREVYVGKETMCTVDGLHFNSTYNARVKAFNKTGVSPYSKTLVLQTSEAAGAHETKPMKDTDSEEQTLPFPVPSERLPLRRMSPFSSTLNLQPSFPGRSYFDFRSSPHQLSLHSSLQSLNAPGCNFETQSASYSQLVDIKKLLAVAWFAFDPGSAHSDIIFSNDNLTVTCSSYDDRVVLGKTGFSKGVHYWELTIDRYDNHPDPAFGVARIDVMKDMMLGKDDKAWAMYVDNNRSWFMHNNSHTNRTEGGITKGATIGVLLDLNRKTLTFFVNNEQQGPIAFENVEGLFFPAVSLNRNVQVSLWAPGLRACSGCYFKVCPGAVKSPQAPAP
With B1 the “fold change of TRIM9 precipitated, Trim67-/- lysate against WT lysate” value was ~2 fold.
